Test results taken from the supplement of paper PMC10126150.
± gives the standard deviation of the averaged measurements.

Tested on: ATP
Assay: switch fluorescence ratio, 500 uM ATP over buffer (Cy3 cluster intensity, sum of 5 cycles each) (fold (ratio)); higher = stronger signal-on switching upon ATP binding; sequences stand for … in TCGTCGGCAGCGTCAGATGTGTATAAGAGACAGTTTTTTTTTTTTTTTTTTTTTTTTT…TC
Conditions: aptamer strand: ATP DNA aptamer (quencher-CACCTGGGGGAGTATTGCGGAGGAAGG + anchor), 100 nM annealed; ATP concentration: 500 uM
Method in brief: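 Clusters carrying Cy3-labelled switching strands on a modified Illumina MiSeq flow-cell were annealed to 100 nM quencher-labelled ATP aptamer and imaged in selection buffer. They were imaged again after 15 min with 500 uM ATP at 22 °C, over five buffer/ATP cycles with NaOH stripping and re-annealing in between. For each cluster, the fluorescence ratio is the summed Cy3 intensity of the target cycles divided by that of the buffer cycles, averaged per switch-domain sequence. Clusters outside 100-1000 RFU were left out.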
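Note: ATP exposure 15 min at 22 °C before imaging.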

Sequence	switch fluorescence ratio
TTTACGCGCA	1.01 ± 0.03
AATGGTGCCT	0.996 ± 0.07
TTGTAGCTTT	1.12 ± 0.089
TGTTGGGGGT	0.962 ± 0.034
GGCCGGGGTG	1.18 ± 0.032
CAAGCTTTCG	1.06 ± 0.048
AGCCGGTTCC	1.014 ± 0.0092
AACTTTTTAA	1.01 ± 0.012
TAGAATTCTT	0.997 ± 0.078
GCTCGGTTG	1.01 ± 0.022
GATCATTCTG	0.966 ± 0.036
CGTTTGGTCT	1 ± 0.051
TCAGGGGTGG	1 ± 0.058
TGTTTGGAGG	0.985 ± 0.022
TGATAGAGGA	0.988 ± 0.059
ATTCGGTTAT	1.01 ± 0.045
TTTACTGAGA	1.01 ± 0.033
GCGGCGGTGC	1.02 ± 0.031
TTTTGTGAAT	0.9561 ± 0.0045
GCTGACGGTT	0.997 ± 0.024
CAGGTGGTGG	1.02 ± 0.02
GGGGGCGGGG	1.01 ± 0.03
ATGGAAGTGC	0.9827 ± 0.0068

Sequence	switch fluorescence ratio
ATTGAGTAA	0.976 ± 0.025
GAGTATAATA	0.997 ± 0.025
GTGGGATTGG	1.01 ± 0.027
TCAATGCATG	0.983 ± 0.035
GAATGAGCGT	0.9799 ± 0.003
CATTAACGAG	1.013 ± 0.0062
GTTTGTGGTT	0.988 ± 0.019
CTATCGGGGT	0.993 ± 0.015
TATCACGGCG	0.998 ± 0.013
CGGTAATGTT	1 ± 0.027
AGGGATGGGT	0.976 ± 0.0026
TTGACGGTGT	1.028 ± 0.0021
CGGGGCTGTG	1 ± 0.013
ACGGTATTGG	1.09 ± 0.044
TGGGGATTTA	1.003 ± 0.0072
TGTCGGGCCT	1.03 ± 0.042
CATTAGCTGG	1.03 ± 0.002
TTTTTCCCCC	1.04 ± 0.05
TTGAAGGGGA	0.9736 ± 0.0039
TTTTACGGTT	1.03 ± 0.069
CGGTCCGTTT	1.02 ± 0.042
GGTTCTCAGG	1.02 ± 0.011
AGCGGATTAA	1.016 ± 0.0017

Sequence	switch fluorescence ratio
GGTTTTTGGT	1 ± 0.032
TGTGTTGGGG	0.969 ± 0.024
CATGGTCTCA	1.017 ± 0.0017
GTCGGGGTAT	0.991 ± 0.012
AATTGAGGGC	1.02 ± 0.035
TTGGTTATAG	1.01 ± 0.011
CCAGTAGGAG	1.07 ± 0.051
CAGTCTTTTT	1.03 ± 0.022
ATTTTTAGGC	1.11 ± 0.11
TGGTTACGTT	0.983 ± 0.018
AATGAGTGGA	1.008 ± 0.0063
CGGGTGGCAG	1.01 ± 0.061
CTTGGAGTTT	1 ± 0.034
TTTGTGCAGG	1.04 ± 0.046
CCCTGTCGGC	0.997 ± 0.037
GAACCTGGAT	1.16 ± 0.038
CAGGGTCGGG	0.966 ± 0.035
GGGGTTCAGA	0.9846 ± 0.0041
AATGTCAATG	0.991 ± 0.021
GCGGCACATA	1.09 ± 0.042
AATTGCCTGT	0.933 ± 0.071
ATTATCAGGT	1.06 ± 0.057
CCAGAATTCG	0.98 ± 0.024

Sequence	switch fluorescence ratio
GTGTAATGAG	0.964 ± 0.014
TGTATGGGGA	0.9997 ± 0.004
TCAAAGAAC	1.0338 ± 0.00026
ATGGTCGTCG	0.9939 ± 0.0035
ATAATAGAGC	1 ± 0.023
GTTTTTTTGG	1 ± 0.018
CGGCCTTGCA	1.026 ± 0.0095
TTGTTCGGCC	0.992 ± 0.035
TTTCGGTAGT	0.995 ± 0.026
AGATTTTCTG	1.01 ± 0.025
TGAATTGGGG	1.06 ± 0.084
GAGGGGGTCC	1.03 ± 0.069
TAATCGTTTG	0.962 ± 0.01
CAGGATTGTT	1.02 ± 0.04
TGTAATTTGA	0.984 ± 0.021
GGGGCGGAGT	0.989 ± 0.055
TTTTGGTGCG	0.986 ± 0.041
TTGTGGAGAG	1.09 ± 0.12
ACGGAGGGGG	0.96 ± 0.042
TGCGGGGAGG	1.01 ± 0.0017
TTGTGTTTTG	1.16 ± 0.39
TTGACGCTAA	2.37 ± 0.65
AGTTGCGGTT	1.002 ± 0.0018

Sequence	switch fluorescence ratio
TAGTTATCGA	0.997 ± 0.0069
AGGAAGAACG	1.04 ± 0.02
GGTACTATCG	0.961 ± 0.071
TTTTCAGCAA	2.59 ± 1
TAATTGTTGT	1.003 ± 0.005
TTATTGCTCG	0.989 ± 0.021
TAAAAATATG	0.9907 ± 0.0013
GTTCAAGATA	1 ± 0.036
GCGGGGGCAA	1.0292 ± 0.00013
GGTTCTTGGT	0.949 ± 0.028
AGGCCCTGTT	0.989 ± 0.028
GCTTGAAATT	0.986 ± 0.062
AAAGTGGGAG	0.971 ± 0.012
TTTTACAAGA	0.996 ± 0.043
TAGGAGGGAG	1.02 ± 0.031
CATATTCCTA	0.999 ± 0.035
AGTGGTAAAG	1.012 ± 0.0029
TTTTCTGTCG	1.06 ± 0.063
ACGGGATATA	1.02 ± 0.058
GCGTTACGGT	1.02 ± 0.0057
TACAATTTTG	1.013 ± 0.0017
TTTGGAATTG	0.988 ± 0.016
GACGAGTTTT	1.01 ± 0.022

Sequence	switch fluorescence ratio
GGGGTTACAT	0.9919 ± 0.0072
AGGGAATGTT	0.972 ± 0.033
TTGATCAGTG	1.01 ± 0.015
AGAGTAGTTG	0.9708 ± 0.0076
GGGTTGGAGT	0.9965 ± 0.0081
TTAAGTTGGT	0.997 ± 0.045
CCGGGGGCCT	1.08 ± 0.032
TCCATGTATC	0.984 ± 0.02
TTCGATCTGA	0.955 ± 0.012
AAGCCGGCTA	1.03 ± 0.023
GAAGTTTGTT	0.98 ± 0.026
TCATTCAACT	1 ± 0.013
TAAGTATGGT	1.03 ± 0.046
GAAATATCAG	1.01 ± 0.029
TTTCTGGTCG	0.964 ± 0.019
TGCGAGGCGT	0.997 ± 0.021
ATTCGAATCG	1.05 ± 0.12
CATATATTT	0.975 ± 0.015
GGGGTATAGG	0.9746 ± 0.008
GGCTGGGATT	0.964 ± 0.02
ATCCTTGGTC	1.01 ± 0.023
TTTGAATTGG	0.996 ± 0.017
CAAGGAGATG	1.01 ± 0.046

Sequence	switch fluorescence ratio
AAGTAAAGCT	1.11 ± 0.06
GATGCAGTTT	1.03 ± 0.019
CCACTGGGTG	4.394 ± 0.031
GGCCGGCAAA	1.01 ± 0.037
ATGGGTACGG	1.02 ± 0.029
GGAGGGTGAG	0.984 ± 0.014
TGTTATAGCC	1.03 ± 0.04
AACTGGGGGG	1 ± 0.045
GAGTTGAATT	0.993 ± 0.046
GATATACTTT	0.99 ± 0.027
TCGGGGGATA	0.98 ± 0.039
ACACTGCCAT	1.16 ± 0.032
TTCTGGGGTA	0.988 ± 0.033
TCCTTGTGGT	0.973 ± 0.037
CAAAACTACT	1.06 ± 0.011
GCCAGTTTGG	0.9916 ± 0.0052
AGGAAAATTT	1 ± 0.047
ATGAATGTTT	1 ± 0.026
CACTGGGCGA	3.28 ± 3.2
